# Assay results as given in patent US20250368745A1 (published 2025).
# Numbering of substitutions follows the chain as printed. Names may count otherwise.
# T1: human IL-18BP (human, UniProt O95998 31-194)
# T1 construct: UniProt printed as 095998; also called hIL-18BP
# T1 sequence: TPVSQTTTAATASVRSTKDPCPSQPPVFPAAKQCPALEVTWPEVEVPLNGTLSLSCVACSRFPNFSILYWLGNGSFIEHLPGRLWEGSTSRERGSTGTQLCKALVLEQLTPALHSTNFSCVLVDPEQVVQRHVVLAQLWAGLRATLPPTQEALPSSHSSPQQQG
# T2: human IL-18BP (human, UniProt O95998 31-194)
# T2 construct: also called hIL-18BP; Mature Human Isoform A
# T2 sequence: T1 sequence
# B1: SA301a HC-Y96H (antibody, name in Kabat numbering, V domains shown)
# VH: QVQLQESGPGLVKPSQTLSLTCTVSGYSITSDYNSHWIRQPPGKGLEWIGYIHYSGSTNYNPSLKSRVTISRDTSKNQFSLKLSSVTAADTAVYYCARNHGSIYVNYFDYWGQGTLVTVSS
# VL: EIVLTQSPATLSLSPGERATLSCSASSSVSYMYWYQQKPGQAPRPLIYRTSNLASGIPARFSGSGSGTDFTLTISSLEPEDFAVYYCQQYHSYPTFGGGTKVEIK
# notes: IgG1 kappa
# B2: SA301a HC-Y96I (antibody, name in Kabat numbering, V domains shown)
# VH: B1 VH with H100I
# VL: B1 VL
# notes: IgG1 kappa
# B3: SA301a HC-Y96G (antibody, name in Kabat numbering, V domains shown)
# VH: B1 VH with H100G
# VL: B1 VL
# notes: IgG1 kappa
# B4: SA301a HC-Y96P (antibody, name in Kabat numbering, V domains shown)
# VH: B1 VH with H100P
# VL: B1 VL
# notes: IgG1 kappa
# B5: SA301a HC-Y96L (antibody, name in Kabat numbering, V domains shown)
# VH: B1 VH with H100L
# VL: B1 VL
# notes: IgG1 kappa
# B6: SA301a HC-Y96V (antibody, name in Kabat numbering, V domains shown)
# VH: B1 VH with H100V
# VL: B1 VL
# notes: IgG1 kappa
# B7: SA301a HC-Y96K (antibody, name in Kabat numbering, V domains shown)
# VH: B1 VH with H100K
# VL: B1 VL
# notes: IgG1 kappa
# B8: SA301a HC-Y96S (antibody, name in Kabat numbering, V domains shown)
# VH: B1 VH with H100S
# VL: B1 VL
# notes: IgG1 kappa
# B9: SA301a HC-Y96N (antibody, name in Kabat numbering, V domains shown)
# VH: B1 VH with H100N
# VL: B1 VL
# notes: IgG1 kappa
# B10: SA301a HC-Y96R (antibody, name in Kabat numbering, V domains shown)
# VH: B1 VH with H100R
# VL: B1 VL
# notes: IgG1 kappa
# B11: SA301a HC-Y96T (antibody, name in Kabat numbering, V domains shown)
# VH: B1 VH with H100T
# VL: B1 VL
# notes: IgG1 kappa
# B12: SA301a HC-Y96Q (antibody, name in Kabat numbering, V domains shown)
# VH: B1 VH with H100Q
# VL: B1 VL
# notes: IgG1 kappa
# B13: SA301a HC-Y96F (antibody, name in Kabat numbering, V domains shown)
# VH: B1 VH with H100F
# VL: B1 VL
# notes: IgG1 kappa
# B14: SA301a light chain variant V29T (antibody, V domains shown)
# VH: B1 VH with H100Y
# VL: B1 VL with V29T
# B15: SA301a light chain variant V29P (antibody, V domains shown)
# VH: B1 VH with H100Y
# VL: B1 VL with V29P
# B16: SA301a light chain variant S30L (antibody, V domains shown)
# VH: B1 VH with H100Y
# VL: B1 VL with S30L
# B17: SA301a light chain variant S28D (antibody, V domains shown)
# VH: B1 VH with H100Y
# VL: B1 VL with S28D
# B18: SA301a light chain variant S30F (antibody, V domains shown)
# VH: B1 VH with H100Y
# VL: B1 VL with S30F
# B19: SA301a light chain variant S27R (antibody, V domains shown)
# VH: B1 VH with H100Y
# VL: B1 VL with S27R
# B20: SA301a light chain variant S28E (antibody, V domains shown)
# VH: B1 VH with H100Y
# VL: B1 VL with S28E
# B21: SA301a light chain variant V29H (antibody, V domains shown)
# VH: B1 VH with H100Y
# VL: B1 VL with V29H
# B22: SA301a light chain variant S28K (antibody, V domains shown)
# VH: B1 VH with H100Y
# VL: B1 VL with S28K
# B23: SA301a light chain variant V29E (antibody, V domains shown)
# VH: B1 VH with H100Y
# VL: B1 VL with V29E
# B24: SA301a light chain variant S27M (antibody, V domains shown)
# VH: B1 VH with H100Y
# VL: B1 VL with S27M
# B25: SA301a light chain variant S28N (antibody, V domains shown)
# VH: B1 VH with H100Y
# VL: B1 VL with S28N
# B26: SA301a light chain variant S28G (antibody, V domains shown)
# VH: B1 VH with H100Y
# VL: B1 VL with S28G
# B27: SA301a light chain variant S27I (antibody, V domains shown)
# VH: B1 VH with H100Y
# VL: B1 VL with S27I
# B28: SA301a light chain variant V29R (antibody, V domains shown)
# VH: B1 VH with H100Y
# VL: B1 VL with V29R
# B29: SA301a light chain variant V29L (antibody, V domains shown)
# VH: B1 VH with H100Y
# VL: B1 VL with V29L
# B30: SA301a light chain variant S27H (antibody, V domains shown)
# VH: B1 VH with H100Y
# VL: B1 VL with S27H
# B31: SA301a light chain variant S27Y (antibody, V domains shown)
# VH: B1 VH with H100Y
# VL: B1 VL with S27Y
# B32: SA301a light chain variant S28F (antibody, V domains shown)
# VH: B1 VH with H100Y
# VL: B1 VL with S28F
# B33: SA301a light chain variant V29Q (antibody, V domains shown)
# VH: B1 VH with H100Y
# VL: B1 VL with V29Q
# B34: SA301a light chain variant S28T (antibody, V domains shown)
# VH: B1 VH with H100Y
# VL: B1 VL with S28T
# B35: SA301a light chain variant S27L (antibody, V domains shown)
# VH: B1 VH with H100Y
# VL: B1 VL with S27L
# B36: SA301a light chain variant S27P (antibody, V domains shown)
# VH: B1 VH with H100Y
# VL: B1 VL with S27P
# B37: SA301a light chain variant S28Q (antibody, V domains shown)
# VH: B1 VH with H100Y
# VL: B1 VL with S28Q
# B38: SA301a light chain variant S28M (antibody, V domains shown)
# VH: B1 VH with H100Y
# VL: B1 VL with S28M
# B39: SA301a light chain variant S27A (antibody, V domains shown)
# VH: B1 VH with H100Y
# VL: B1 VL with S27A
# B40: SA301a light chain variant S28P (antibody, V domains shown)
# VH: B1 VH with H100Y
# VL: B1 VL with S28P
# B41: SA301a light chain variant S27D (antibody, V domains shown)
# VH: B1 VH with H100Y
# VL: B1 VL with S27D
# B42: SA301a light chain variant S27K (antibody, V domains shown)
# VH: B1 VH with H100Y
# VL: B1 VL with S27K
# B43: SA301a light chain variant S28H (antibody, V domains shown)
# VH: B1 VH with H100Y
# VL: B1 VL with S28H
# B44: SA301a light chain variant S30D (antibody, V domains shown)
# VH: B1 VH with H100Y
# VL: B1 VL with S30D
# B45: SA301a light chain variant S28Y (antibody, V domains shown)
# VH: B1 VH with H100Y
# VL: B1 VL with S28Y
# B46: SA301a light chain variant S27G (antibody, V domains shown)
# VH: B1 VH with H100Y
# VL: B1 VL with S27G
# B47: SA301a light chain variant S27Q (antibody, V domains shown)
# VH: B1 VH with H100Y
# VL: B1 VL with S27Q
# Biological target: T1, human IL-18BP
# Test: BLI, apparent KD
row,Binder,Kd [nM]
1,B1,1.24
2,B2,4.02
3,B3,2.5
4,B4,0.46
5,B5,1.08
6,B6,1.68
7,B7,15.2
8,B8,0.87
9,B9,2.8
10,B10,0.6
11,B11,0.61
12,B12,0.65
13,B13,0.13

# Biological target: T2, human IL-18BP
# Test: BLI, apparent KD, one conc.
row,Binder,Kd [nM]
1,B14,0.32
2,B15,0.38
3,B16,0.49
4,B17,0.42
5,B18,0.35
6,B19,0.45
7,B20,0.39
8,B21,0.47
9,B22,0.51
10,B23,0.34
11,B24,0.63
12,B25,0.45
13,B26,0.51
14,B27,0.5
15,B28,0.38
16,B29,0.33
17,B30,0.53

row,Binder,Kd [nM]
1,B31,0.37
2,B32,0.46
3,B33,0.3
4,B34,0.43
5,B35,0.44
6,B36,0.45
7,B37,0.45
8,B38,0.51
9,B39,0.47
10,B40,0.39
11,B41,0.43
12,B42,0.52
13,B43,0.44
14,B44,0.31
15,B45,0.47
16,B46,0.49
17,B47,0.43
